*1 amine or outer side, *2 acyl side, *3 side chain or, on linkers, in order; H or OH if unused. Where a SMILES comes first, the peptide text is derived from it. Where no end group is shown, it is not given here. Side-chain parts run from the residue outwards. [ ]: non-standard residue; d: D form. The star is where a group is joined. γGlu = O=C(O)[C@H](CCC(=O)[*:2])N[*:1]; Palmitoyl = CCCCCCCCCCCCCCCC(=O)*; Nle = CCCC[C@H](N)C(=O)O; Aib = CC(C)(N)C(=O)O
B1: Co-agonist Peptide 7 (peptide)
peptide: Ac-HAQGTFTSDK([γGlu-γGlu-Palmitoyl])SKYLDERAAQDFVQWLLDT-NH2
SMILES: CCCCCCCCCCCCCCCC(=O)N[C@@H](CCC(=O)N[C@@H](CCC(=O)NCCCC[C@H](NC(=O)[C@H](CC(=O)O)NC(=O)[C@H](CO)NC(=O)[C@@H](NC(=O)[C@H](Cc1ccccc1)NC(=O)[C@@H](NC(=O)CNC(=O)[C@H](CCC(N)=O)NC(=O)[C@H](C)NC(=O)[C@H](Cc1c[nH]cn1)NC(C)=O)[C@@H](C)O)[C@@H](C)O)C(=O)N[C@@H](CO)C(=O)N[C@@H](CCCCN)C(=O)N[C@@H](Cc1ccc(O)cc1)C(=O)N[C@@H](CC(C)C)C(=O)N[C@@H](CC(=O)O)C(=O)N[C@@H](CCC(=O)O)C(=O)N[C@@H](CCCNC(=N)N)C(=O)N[C@@H](C)C(=O)N[C@@H](C)C(=O)N[C@@H](CCC(N)=O)C(=O)N[C@@H](CC(=O)O)C(=O)N[C@@H](Cc1ccccc1)C(=O)N[C@H](C(=O)N[C@@H](CCC(N)=O)C(=O)N[C@@H](Cc1c[nH]c2ccccc12)C(=O)N[C@@H](CC(C)C)C(=O)N[C@@H](CC(C)C)C(=O)N[C@@H](CC(=O)O)C(=O)N[C@H](C(N)=O)[C@@H](C)O)C(C)C)C(=O)O)C(=O)O
B2: Co-agonist Peptide 4 (peptide)
peptide: H[Aib]VGTFTSDK([γGlu-γGlu-Palmitoyl])SKYLD[Aib]RAAQDFVQWL[Nle]DT-NH2
modifications: N-terminus assumed
SMILES: CCCCCCCCCCCCCCCC(=O)N[C@@H](CCC(=O)N[C@@H](CCC(=O)NCCCC[C@H](NC(=O)[C@H](CC(=O)O)NC(=O)[C@H](CO)NC(=O)[C@@H](NC(=O)[C@H](Cc1ccccc1)NC(=O)[C@@H](NC(=O)CNC(=O)[C@@H](NC(=O)C(C)(C)NC(=O)[C@@H](N)Cc1c[nH]cn1)C(C)C)[C@@H](C)O)[C@@H](C)O)C(=O)N[C@@H](CO)C(=O)N[C@@H](CCCCN)C(=O)N[C@@H](Cc1ccc(O)cc1)C(=O)N[C@@H](CC(C)C)C(=O)N[C@@H](CC(=O)O)C(=O)NC(C)(C)C(=O)N[C@@H](CCCNC(=N)N)C(=O)N[C@@H](C)C(=O)N[C@@H](C)C(=O)N[C@@H](CCC(N)=O)C(=O)N[C@@H](CC(=O)O)C(=O)N[C@@H](Cc1ccccc1)C(=O)N[C@H](C(=O)N[C@@H](CCC(N)=O)C(=O)N[C@@H](Cc1c[nH]c2ccccc12)C(=O)N[C@@H](CC(C)C)C(=O)N[C@@H](CCCC)C(=O)N[C@@H](CC(=O)O)C(=O)N[C@H](C(N)=O)[C@@H](C)O)C(C)C)C(=O)O)C(=O)O
B3: Co-agonist Peptide 14 (peptide)
peptide: HXQGTXTSDKSKYLDERAAQDFVQWLLDT
modifications: D-Ser at 2; threo-β-phenylserine (tβP) at 6; Lys 10 conjugated to γEγE-C16 (palmitoyl); C-terminal amide

These molecules were tested against human glucagon receptor (human, UniProt P47871 26-477) (assay: cell-based or functional assay). Settings: not given.
Chain of human glucagon receptor (P47871 26-477): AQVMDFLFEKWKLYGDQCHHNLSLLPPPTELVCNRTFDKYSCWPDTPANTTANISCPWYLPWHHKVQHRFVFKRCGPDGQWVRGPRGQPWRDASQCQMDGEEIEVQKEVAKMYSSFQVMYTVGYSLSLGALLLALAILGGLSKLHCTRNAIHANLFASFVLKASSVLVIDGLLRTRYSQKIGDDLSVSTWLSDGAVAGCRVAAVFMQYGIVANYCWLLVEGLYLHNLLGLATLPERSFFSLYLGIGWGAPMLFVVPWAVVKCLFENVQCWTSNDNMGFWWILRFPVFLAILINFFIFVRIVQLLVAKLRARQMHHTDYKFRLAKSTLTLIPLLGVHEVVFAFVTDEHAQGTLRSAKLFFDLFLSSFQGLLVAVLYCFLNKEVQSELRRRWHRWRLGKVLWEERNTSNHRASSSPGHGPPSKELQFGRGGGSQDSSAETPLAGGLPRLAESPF

In order of rising “hGCGR/hGLP1R (hTone): ratio of cAMP EC50 at human GCGR to cAMP EC50 at human GLP1R” value:
1. H[dS]QGTFTSDK([γGlu-γGlu-Palmitoyl])SKYLDVRRAQDFVQWLLDT-NH2 (not fully specified; printed as HsQGTFTSDK(γEγEC16)SKYLDVRRAQDFVQWLLDT-NH2) [Co-agonist Peptide 2]  0.3 ratio
2. B1  1 ratio
3. B3  1.02 ratio
4. B2  8.98 ratio

What follows are molecules tested against T1, human GCGR (Homo sapiens, UniProt P47871) (assay: cAMP protocol, cells expressing human GCGR). Settings: ratio of EC50 at human GCGR to EC50 at human GLP1R.
T1 construct: expressed in transfected cells; grown under Geneticin and Hygromycin selection
T1 sequence (P47871 26-477): as above
Assay type: cell-based
Method: The cAMP protocol was as follows.
Peptides were dissolved in 100% DMSO and serially diluted to generate 11 point titrations. The peptide solutions were then transferred into 384-well assay plates (150 nL/well). Assay ready frozen cells expressing human GLP-1R or human GCGR were suspended in growth media consisting of DMEM/F12 medium (GIBCO), 10% FBS (GIBCO), lx P/S (GIBCO), 800 μg/mL Geneticin (GIBCO), and 300 μg/mL Hygromycin (Invitrogen). Cells were then diluted in assay buffer consisting of PBS (GIBCO), 7.5% BSA (Perkin Elmer), 100 μM RO 20-1724 (Sigma), and 20% human serum (MP Biomedical). The cell suspensions (15 μL) were then added to the assay plates containing the peptide solutions (30,000 cells/well for human GCGR; 20,000 cells/well for GLP1R). The cells were incubated for 1 hour at room temperature in the dark. Production of cAMP was determined using HitHunter™ cAMPXS kits (DiscoverX). ED buffer (20 μL) was then added to each well and the plates were incubated for 1 hour at room temperature in the dark. Subsequently, EA buffer (20 μL) was added to each well, and the plates were incubated for 1-18 hours at room temperature in the dark. Luminescence was measured using an EnVision Multilabel plate reader (Perkin Elmer). EC50 values were calculated using ADA data analyzer software.

In order of rising “hGCGR/hGLP1R (hTone)” value:
1. CCCCCCCCCCCCCCCC(=O)N[C@@H](CCC(=O)N[C@@H](CCC(=O)NCCCC[C@H](NC(=O)[C@H](CC(=O)O)NC(=O)[C@H](CO)NC(=O)[C@@H](NC(=O)[C@H](Cc1ccccc1)NC(=O)[C@@H](NC(=O)CNC(=O)[C@H](CCC(N)=O)NC(=O)[C@@H](CO)NC(=O)[C@@H](N)Cc1c[nH]cn1)[C@@H](C)O)[C@@H](C)O)C(=O)N[C@@H](CO)C(=O)N[C@@H](CCCCN)C(=O)N[C@@H](Cc1ccc(O)cc1)C(=O)N[C@@H](CC(C)C)C(=O)N[C@@H](CCC(=O)O)C(=O)N[C@@H](C)C(=O)N[C@@H](CCCNC(=N)N)C(=O)N[C@@H](C)C(=O)N[C@@H](C)C(=O)N[C@@H](CCC(N)=O)C(=O)N[C@@H](CC(=O)O)C(=O)N[C@@H](Cc1ccccc1)C(=O)N[C@H](C(=O)N[C@@H](CCC(N)=O)C(=O)N[C@@H](Cc1c[nH]c2ccccc12)C(=O)N[C@@H](CC(C)C)C(=O)N[C@@H](CC(C)C)C(=O)N[C@@H](CC(=O)O)C(=O)N[C@H](C(N)=O)[C@@H](C)O)C(C)C)C(=O)O)C(=O)O [SEQ ID NO: 13]  0.90
2. CCCCCCCCCCCCCCCC(=O)N[C@@H](CCC(=O)N[C@@H](CCC(=O)NCCCC[C@H](NC(=O)[C@H](CC(=O)O)NC(=O)[C@H](CO)NC(=O)[C@@H](NC(=O)[C@H](Cc1ccccc1)NC(=O)[C@@H](NC(=O)CNC(=O)[C@H](CCC(N)=O)NC(=O)[C@@H](CO)NC(=O)[C@@H](N)Cc1c[nH]cn1)[C@@H](C)O)[C@@H](C)O)C(=O)N[C@@H](CO)C(=O)N[C@@H](CC(C)C)C(=O)N[C@@H](Cc1ccc(O)cc1)C(=O)N[C@@H](CC(C)C)C(=O)N[C@@H](CC(=O)O)C(=O)N[C@@H](CCC(=O)O)C(=O)N[C@@H](CCCNC(=N)N)C(=O)N[C@@H](C)C(=O)N[C@@H](C)C(=O)N[C@@H](CCC(N)=O)C(=O)N[C@@H](CC(=O)O)C(=O)N[C@@H](Cc1ccccc1)C(=O)N[C@H](C(=O)N[C@@H](CCC(N)=O)C(=O)N[C@@H](Cc1c[nH]c2ccccc12)C(=O)N[C@@H](CC(C)C)C(=O)N[C@@H](CC(C)C)C(=O)N[C@@H](CC(=O)O)C(=O)N[C@H](C(N)=O)[C@@H](C)O)C(C)C)C(=O)O)C(=O)O [SEQ ID NO: 16] (H-H[dS]QGTFTSDK([γGlu-γGlu-Palmitoyl])SLYLDERAAQDFVQWLLDT-NH2)  0.91
3. CCCCCCCCCCCCCCCC(=O)N[C@@H](CCC(=O)N[C@@H](CCC(=O)NCCCC[C@H](NC(=O)[C@H](CC(=O)O)NC(=O)[C@H](CO)NC(=O)[C@@H](NC(=O)[C@H](Cc1ccccc1)NC(=O)[C@@H](NC(=O)CNC(=O)[C@H](CCC(N)=O)NC(=O)C1(NC(=O)[C@@H](N)Cc2c[nH]cn2)CCC1)[C@@H](C)O)[C@@H](C)O)C(=O)N[C@@H](CO)C(=O)N[C@@H](CCCCN)C(=O)N[C@@H](Cc1ccc(O)cc1)C(=O)N[C@@H](CC(C)C)C(=O)N[C@@H](CC(=O)O)C(=O)N[C@@H](CCC(=O)O)C(=O)N[C@@H](CCCNC(=N)N)C(=O)N[C@@H](C)C(=O)N[C@@H](C)C(=O)N[C@@H](CCC(N)=O)C(=O)N[C@@H](CC(=O)O)C(=O)N[C@@H](Cc1ccccc1)C(=O)N[C@H](C(=O)N[C@@H](CCC(N)=O)C(=O)N[C@@H](Cc1c[nH]c2ccccc12)C(=O)N[C@@H](CC(C)C)C(=O)N[C@@H](CC(C)C)C(=O)N[C@@H](CC(=O)O)C(=O)N[C@H](C(N)=O)[C@@H](C)O)C(C)C)C(=O)O)C(=O)O [SEQ ID NO: 18]  1.25

Reference: patent publication US20160114000A1 (Merck Sharp & Dohme, published 2016)
